Laboratory results from PMC3961393, “Progranulin-Derived Atsttrin Directly Binds to TNFRSF25 (DR3) and Inhibits TNF-Like Ligand 1A (TL1A) Activity” (PLoS ONE, 2014).

Columns and labels:
[1] = biological target: T1, Recombinant protein hTL1A (human, UniProt O95150 72-251); assay: ELISA; solid phase inhibition assay: 100 ng of TNFa or TL1A coated overnight, 100 ng of TNFR2 or DR3 added together with various dose of Atsttrin, bound receptor detected by anti-TNFR2 or anti-DR3 antibody and HRP secondary antibody; conditions: both partners purified
T1 construct: human TL1A, recombinant; also called TNF-Like Ligand 1A; source: bought: R&D system (Cat# 1319-TL-010)
T1 sequence (looked up): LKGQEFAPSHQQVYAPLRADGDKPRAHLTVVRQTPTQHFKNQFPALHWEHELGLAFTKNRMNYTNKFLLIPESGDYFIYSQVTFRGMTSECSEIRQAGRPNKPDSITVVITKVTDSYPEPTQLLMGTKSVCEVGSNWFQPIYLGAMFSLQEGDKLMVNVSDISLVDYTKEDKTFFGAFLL

Recombinant hPGRN = biological target: T2, Recombinant hPGRN (human, UniProt P28799 18-593); assay: ELISA; solid phase binding assay: various dose of Atsttrin or progranulin coated on the plate overnight, biotinylated TNFR2, DR3 or BSA added, detected with avidin-HRP, OD 450 nm; conditions: both partners purified
T2 construct: human progranulin, recombinant; also called Progranulin; source: bought: Adipogen (Cat. No. AG-40A-0188)
T2 sequence (looked up): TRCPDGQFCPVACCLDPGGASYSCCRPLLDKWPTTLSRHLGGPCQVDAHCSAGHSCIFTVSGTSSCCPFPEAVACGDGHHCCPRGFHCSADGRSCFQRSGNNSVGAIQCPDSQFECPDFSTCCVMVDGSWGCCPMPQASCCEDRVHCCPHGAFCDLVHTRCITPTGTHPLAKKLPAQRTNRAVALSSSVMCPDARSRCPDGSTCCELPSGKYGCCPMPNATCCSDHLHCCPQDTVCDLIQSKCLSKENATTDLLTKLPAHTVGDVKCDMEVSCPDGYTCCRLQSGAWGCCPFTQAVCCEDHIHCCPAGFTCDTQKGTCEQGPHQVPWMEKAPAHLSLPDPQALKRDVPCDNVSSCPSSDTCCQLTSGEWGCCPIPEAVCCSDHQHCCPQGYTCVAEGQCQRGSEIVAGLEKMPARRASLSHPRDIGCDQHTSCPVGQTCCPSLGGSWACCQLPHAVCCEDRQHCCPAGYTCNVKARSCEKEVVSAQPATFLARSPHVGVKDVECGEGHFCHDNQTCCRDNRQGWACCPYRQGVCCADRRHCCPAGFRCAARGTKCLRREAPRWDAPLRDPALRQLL

B1: recombinant extracellular portion of hDR3 (domain or fragment, human, UniProt Q93038 25-199, looked up)
chain: QGGTRSPRCDCAGDFHKKIGLFCCRGCPAGHYLKAPCTEPCGNSTCLVCPQDTFLAWENHHNSECARCQACDEQASQVALENCSAVADTRCGCKPGWFVECQVSQCVSSSPFYCQPCLDCGALHRHTRLLCSRRDTDCGTCLPGFYEHGDGCVSCPTSTLGSCPERCAAVCGWRQ
modifications: biotinylated (site not stated) in the direct solid phase binding assay; biotin is not mentioned for the inhibition assay
notes: human DR3 (TNFRSF25), recombinant extracellular portion; As I recall, this catalogue item is an Fc chimera; also called DR3 extracellular portion; TNFRSF25; source: bought: R&D system (Cat# 943-D3-050)
binding result [1]: binds
binding result (Recombinant hPGRN): binds
